Sequences and labels used below:
B1: mouse Toll-like receptor 3 (TLR3) extracellular domain (ECD), wild type [mouse] / itself (parent)
chain: TNQCTVRYNVADCSHLKLTHIPDDLPSNITVLNLTHNQLRRLPPTNFTRYSQLAILDAGFNSISKLEPELCQILPLLKVLNLQHNELSQISDQTFVFCTNLTELDLMSNSIHKIKSNPFKNQKNLIKLDLSHNGLSSTKLGTGVQLENLQELLLAKNKILALRSEELEFLGNSSLRKLDLSSNPLKEFSPGCFQTIGKLFALLLNNAQLNPHLTEKLCWELSNTSIQNLSLANNQLLATSESTFSGLKWTNLTQLDLSYNNLHDVGNGSFSYLPSLRYLSLEYNNIQRLSPRSFYGLSNLRYLSLKRAFTKQSVSLASHPNIDDFSFQWLKYLEYLNMDDNNIPSTKSNTFTGLVSLKYLSLSKTFTSLQTLTNETFVSLAHSPLLTLNLTKNHISKIANGTFSWLGQLRILDLGLNEIEQKLSGQEWRGLRNIFEIYLSYNKYLQLSTSSFALVPSLQRLMLRRVALKNVDISPSPFRPLRNLTILDLSNNNIANINEDLLEGLENLEILDFQHNNLARLWKRANPGGPVNFLKGLSHLHILNLESNGLDEIPVGVFKNLFELKSINLGLNNLNKLEPFIFDDQTSLRSLNLQKNLITSVEKDVFGPPFQNLNSLDMRFNPFDCTCESISWFVNWINQTHTNISELSTHYLCNTPHHYYGFPLKLFDTSSCKDSAPFEL

Variants of B1 are the subject of this test. The experiment in a line: cryo-EM 2D classification (fraction of tetrameric TLR3 particles on 90 bp dsRNA). Particulars: with itself; TLR3 0.2 mg/mL (~2.4 µM) with 3.6 molar amount of 90 bp dsRNA (0.5 mg/mL, ~8.6 µM); 25 mM MES-NaOH pH 5.3 and 0.2 M NaCl; on ice for 2–3 h; parent: 11; read off a plot.
Take chain 1 S91E Q93E K113E K115E N117E K120E N121E: the screen value was found to be 0.75%.
chain 1 E499K D500K: the screen value came out at 3.6%.
Next, chain 1 E499K D500K E503K: 2.7%; chain 1 Q93E V96E K113E K115E N117E K120E N121E: 1.6%.
The same measure for chain 1 N498K E499K E503K: 12%.

(Values after paper PMC9834221, “TLR3 forms a laterally aligned multimeric complex along double-stranded RNA for efficient signal transduction”.)
